Reference: paper PMC3883574

Target: double-domain activation-associated secreted protein (ASP) (Cooperia oncophora (endogenous in adult worms))
Test: reducing against non-reducing SDS-PAGE, bands identified by MALDI-TOF MS

Question: For “double-domain activation-associated secreted protein (ASP) (natural protein)”, which stoichiometry N is on record?
Answer: The stoichiometry N was 2.
